Data: the supplement of paper PMC6757056
± gives the standard deviation of the averaged measurements.

B1: library; a variant is named by its letters at N, in order (parent)
chain: GCUGUCACCGAGAAACUGUGAAGUAUAUCUUAAACCUGGGCACUUAAAAGAUAUAUGGAGUUAGUAGUGCAACCUGCUCGGUCUGAUGAGUCCNNNNNNGGACGAAACAGC

Key:
cyclic di-GMP [1] = variants of: B1; test: FACS-Seq fitted mean relative fluorescence mCherry/BFP without ligand (log10 relative fluorescence); HEK293T; ligand: cyclic di-GMP (c-di-GMP-II aptamer); higher = higher reporter protein expression; details: ligand present: no
How it was run: (§1)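 Lentivirally transduced HEK293T libraries carried an mCherry reporter with the ribozyme switch and an EF1α-BFP marker. Transduced cells were enriched, then incubated with or without ligand for 48 h and sorted into 6 bins by mCherry/BFP. Genomic DNA from each bin was PCR-amplified, barcoded and sequenced on MiSeq. Fluorescence was the fitted normal mean of log10(mCherry/BFP) bin counts, scaled to five spiked-in control ribozymes.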

cyclic di-GMP [2] = variants of: B1; test: normalized RNA/DNA level without ligand (relative to sTRSVctl = 100) (log10 (% of sTRSVctl)); HEK293T; ligand: cyclic di-GMP (c-di-GMP-II aptamer); higher = less ribozyme self-cleavage, higher mRNA level; details: reporter: mCherry (pCS4076), ligand present: no
How it was run: (§2)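 HEK293T cells were transfected with library plasmids carrying ribozyme switches linked to an mCherry reporter, or an eGFP reporter in some ligand experiments, at 4 µg per well of a 6-well plate, with any ligand added 1 h beforehand. After 72 h, total RNA was extracted with EDTA, reverse-transcribed, amplified, barcoded and sequenced. RNA level was defined as RNA reads over DNA reads, normalized to a spiked-in non-cleaving sequence or to the top-ranked sequences. That value was multiplied by 100 and converted to log10, the top set was 25 sequences, and only sequences with ≥100 DNA reads were retained.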

cyclic di-GMP [3] = variants of: B1; test: FACS-Seq fitted mean relative fluorescence mCherry/BFP with ligand (log10 relative fluorescence); HEK293T; ligand: cyclic di-GMP (c-di-GMP-II aptamer); ligand concentration (+) FACS-Seq: 1 mM; higher = higher reporter protein expression; details: ligand present: yes
How it was run: as §1

cyclic di-GMP [4] = variants of: B1; test: normalized RNA/DNA level with ligand (relative to sTRSVctl = 100) (log10 (% of sTRSVctl)); HEK293T; ligand: cyclic di-GMP (c-di-GMP-II aptamer); ligand concentration (+) RNA-Seq: 1 mM; higher = less ribozyme self-cleavage, higher mRNA level; details: reporter: mCherry (pCS4076), ligand present: yes
How it was run: as §2

Variant | FACS-Seq fitted mean (log10) (cyclic di-GMP [1]) | normalized RNA/DNA level without ligand (log10) (cyclic di-GMP [2]) | FACS-Seq fitted mean (log10) (cyclic di-GMP [3]) | normalized RNA/DNA level with ligand (log10) (cyclic di-GMP [4])
GCUGUCACCGAGAAACUGUGAAGUAUAUCUUAAACCUGGGCACUUAAAAGAUAUAUGGAGUUAGUAGUGCAACCUGCUCGGUCUGAUGAGUCCAUCGGAGGACGAAACAGC [AUCGGA] | -0.605 ± 0.038 | 1.53 ± 0.043 | -0.31 ± 0.055 | 1.7 ± 0.086
GCUGUCACCGAGAAACUGUGAAGUAUAUCUUAAACCUGGGCACUUAAAAGAUAUAUGGAGUUAGUAGUGCAACCUGCUCGGUCUGAUGAGUCCUUCGUGGGACGAAACAGC [UUCGUG] | -0.959 ± 0.031 | 1.71 ± 0.022 | -0.86 ± 0.094 | 1.86 ± 0.1
GCUGUCACCGAGAAACUGUGAAGUAUAUCUUAAACCUGGGCACUUAAAAGAUAUAUGGAGUUAGUAGUGCAACCUGCUCGGUCUGAUGAGUCCCUCGGAGGACGAAACAGC [CUCGGA] | -0.14 ± 0.19 | 1.58 ± 0.076 | 0.203 ± 0.14 | 1.81 ± 0.14
GCUGUCACCGAGAAACUGUGAAGUAUAUCUUAAACCUGGGCACUUAAAAGAUAUAUGGAGUUAGUAGUGCAACCUGCUCGGUCUGAUGAGUCCUUCGGAGGACGAAACAGC [UUCGGA] | -0.328 ± 0.044 | 1.58 ± 0.093 | 0.0771 ± 0.088 | 1.8 ± 0.081
GCUGUCACCGAGAAACUGUGAAGUAUAUCUUAAACCUGGGCACUUAAAAGAUAUAUGGAGUUAGUAGUGCAACCUGCUCGGUCUGAUGAGUCCUUCGGCGGACGAAACAGC [UUCGGC] | -0.553 ± 0.015 | 1.81 ± 0.029 | -0.447 ± 0.062 | 1.9 ± 0.086
GCUGUCACCGAGAAACUGUGAAGUAUAUCUUAAACCUGGGCACUUAAAAGAUAUAUGGAGUUAGUAGUGCAACCUGCUCGGUCUGAUGAGUCCGUCGGAGGACGAAACAGC [GUCGGA] | -0.0744 ± 0.052 | 1.51 ± 0.073 | 0.242 ± 0.025 | 1.7 ± 0.071
GCUGUCACCGAGAAACUGUGAAGUAUAUCUUAAACCUGGGCACUUAAAAGAUAUAUGGAGUUAGUAGUGCAACCUGCUCGGUCUGAUGAGUCCGUCGCUGGACGAAACAGC [GUCGCU] | -0.798 ± 0.048 | 1.683 ± 0.0047 | -0.654 ± 0.068 | 1.87 ± 0.065
